Reference: article PMC7190724, “Improved GPCR ligands from nanobody tethering” (Nature Communications, 2020)
One block for each binder: values may come before it.

Tests used:
[1] = molecular target: T1, rat PTHR1 (Rattus norvegicus, UniProt P25961); test: flow cytometry on cells; HEK293 cell lines stably transfected with PTHRs, in suspension, incubated on ice with 100 nM VHH sortagged with Alexafluor647, pelleted, washed and analysed; settings: one partner purified
T1 construct: parathyroid hormone receptor-1, rat; also called rPTHR1; source: HEK293, stably transfected (GR35), on cells
T1 sequence (P25961 27-591): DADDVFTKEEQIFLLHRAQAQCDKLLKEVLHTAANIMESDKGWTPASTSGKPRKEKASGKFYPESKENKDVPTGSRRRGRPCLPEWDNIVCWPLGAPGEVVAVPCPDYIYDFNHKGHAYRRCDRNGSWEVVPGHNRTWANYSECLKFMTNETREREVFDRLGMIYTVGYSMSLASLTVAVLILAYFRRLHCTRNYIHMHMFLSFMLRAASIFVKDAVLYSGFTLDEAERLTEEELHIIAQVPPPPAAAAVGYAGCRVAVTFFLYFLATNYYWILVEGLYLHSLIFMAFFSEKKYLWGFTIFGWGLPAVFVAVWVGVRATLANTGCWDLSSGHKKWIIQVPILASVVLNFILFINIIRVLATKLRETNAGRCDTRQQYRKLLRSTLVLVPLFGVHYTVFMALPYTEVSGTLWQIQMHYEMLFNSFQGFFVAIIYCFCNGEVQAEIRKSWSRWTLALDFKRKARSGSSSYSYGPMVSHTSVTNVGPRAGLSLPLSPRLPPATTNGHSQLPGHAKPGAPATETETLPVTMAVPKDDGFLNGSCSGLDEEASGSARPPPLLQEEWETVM

[2] = molecular target: T2, PTHR1_(6E) (Homo sapiens PTHR1 with 14-residue …, UniProt Q03431, chimera); test: flow cytometry on cells; dose response of staining with VHH-Alexafluor647 (median fluorescent intensity); cells in PBS, 1 h on ice; curves without plateau constrained to the plateau seen with other VHHs; settings: one partner purified
T2 construct: PTHR1 from its start to the replaced 14-residue fragment of exon 2; replaces 14 residues of exon 2; PTHR1 from the end of the replaced fragment of exon 2 to its end; Made with the Q5 site-directed mutagenesis kit; whole receptor on cells; source: HEK293, stably transfected, on cells
T2 sequence (Q03431 whole entry, looked up, change not shown, the tested form may be a part): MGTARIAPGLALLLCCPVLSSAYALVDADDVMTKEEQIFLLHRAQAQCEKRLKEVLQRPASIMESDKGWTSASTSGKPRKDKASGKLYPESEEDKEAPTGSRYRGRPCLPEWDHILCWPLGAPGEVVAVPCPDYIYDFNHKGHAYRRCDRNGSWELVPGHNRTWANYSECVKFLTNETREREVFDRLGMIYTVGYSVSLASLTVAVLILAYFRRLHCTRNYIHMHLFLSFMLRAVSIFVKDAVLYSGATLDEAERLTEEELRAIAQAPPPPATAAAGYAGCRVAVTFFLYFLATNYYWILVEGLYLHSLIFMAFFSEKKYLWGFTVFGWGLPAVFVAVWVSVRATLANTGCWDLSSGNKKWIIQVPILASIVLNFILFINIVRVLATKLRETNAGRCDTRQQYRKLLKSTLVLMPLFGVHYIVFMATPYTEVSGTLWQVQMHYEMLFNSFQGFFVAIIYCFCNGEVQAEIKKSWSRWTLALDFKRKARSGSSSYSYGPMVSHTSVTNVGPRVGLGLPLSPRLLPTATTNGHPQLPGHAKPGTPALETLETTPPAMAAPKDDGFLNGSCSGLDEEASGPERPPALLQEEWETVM

binding result [1]: binds
B1: VHH_(PTHR) (VHH)
VHH: EVQLVESGGGLVQAGGSLRLSCAASGNIFANNIMGWYRQPPGKEREFVAHVSHDGDSMYAVSVKGRFAISRKDATNLYLQMNSLKPEDTAIYFCRLLNIPTQGRMEGFWGQGTQVTVSS
notes: VHH 22A3; sortase motif of the expressed construct PelB-VHH-LPETGG-His6; on sortagging what follows LPET is replaced by the GGG of the label; Expressed as PelB-VHH-LPETGG-His6; also called 22A3; VHH_(PTHR)-tetramethylrhodamine; source: E. coli WK6 (pHEN6 vector), osmotic shock, purified (Ni-NTA), then sortagged; not shown: His6, C-terminal, cleaved

EC50 [2]: < 10 nM
B2: VHH6E (VHH)
VHH: QVQLQESGGGLVQPGGSLRLSCAASGFVFENSAMAWYRQAPGKERELIAVIGTTFIKLAESVKGRFTISRDNAKSTVYLQMNNLKPEDTAVYYCSKSGAYWGQGTQVTVSS
notes: VHH05; sortase motif of the expressed construct PelB-VHH-LPETGG-His6; on sortagging what follows LPET is replaced by the GGG of the label; Recognises a 14-mer peptide of UBC6e; also called VHH05; source: E. coli WK6 (pHEN6 vector), osmotic shock, purified (Ni-NTA), then sortagged; not shown: His6, C-terminal, cleaved
